The source of these data is patent US20250243263A1 (VOYAGER THERAPEUTICS, published 2025).

Where no end group is shown, it is not given here. [ ]: non-standard residue; d: D form. pT = C[C@@H](OP(=O)(O)O)[C@H](N)C(=O)O

One test has as its target T1, wild type tau (human, UniProt P10636 2-758).
T1 construct: also called WT
Put plainly: direct ELISA, wild type tau coated. On the procedure:
(§1) A set of recombinant human IgG1 antibodies were prepared with clone-specific variable domain pairs selected from those presented in Table 1 and human IgG1 constant domains. These candidate antibodies were analyzed for binding to ePHF and specificity for ePHF over wild type tau by direct ELISA.
(§2) For direct ePHF and wildtype tau ELISA, plates were first coated with ePHF or wild type tau. Antigen solutions were prepared in PBS and 50 μL were pipetted into each well. Plates were covered and incubated for one hour at 37° C. or overnight at 4° C. Plates were then washed and blocked by addition of 150 μl of blocking buffer to each well and incubated one hour at room temperature. Plates were then washed before addition of serially diluted candidate antibody samples prepared in blocking buffer. Detection of candidate antibody binding was carried out by washing plates and adding a solution of enzyme-labeled secondary antibody in blocking buffer to each well. Secondary antibody binding was detected by addition of substrate and spectrophotometric analysis of resulting reaction product.

In another test the target is T2, Tau(pS404) peptide (human, phosphoserine at S404 of tau (peptide position 18)).
T2 construct: also called TauS404 peptide; TauS404
T2 peptide: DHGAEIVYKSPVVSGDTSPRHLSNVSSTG
The experiment in a line: competitive ELISA on TauS404 peptide, competitor AC04 peptide.

In test [1] the target is T3, enriched paired helical filament tau protein (ePHF; sarkosyl insoluble tau) (human, UniProt P10636 2-758). The experiment in a line: direct ELISA, ePHF coated. As for the experimental part: as §1, §2
T3 sequence (P10636 other isoform, or with tags, fused parts or gaps limits assumed): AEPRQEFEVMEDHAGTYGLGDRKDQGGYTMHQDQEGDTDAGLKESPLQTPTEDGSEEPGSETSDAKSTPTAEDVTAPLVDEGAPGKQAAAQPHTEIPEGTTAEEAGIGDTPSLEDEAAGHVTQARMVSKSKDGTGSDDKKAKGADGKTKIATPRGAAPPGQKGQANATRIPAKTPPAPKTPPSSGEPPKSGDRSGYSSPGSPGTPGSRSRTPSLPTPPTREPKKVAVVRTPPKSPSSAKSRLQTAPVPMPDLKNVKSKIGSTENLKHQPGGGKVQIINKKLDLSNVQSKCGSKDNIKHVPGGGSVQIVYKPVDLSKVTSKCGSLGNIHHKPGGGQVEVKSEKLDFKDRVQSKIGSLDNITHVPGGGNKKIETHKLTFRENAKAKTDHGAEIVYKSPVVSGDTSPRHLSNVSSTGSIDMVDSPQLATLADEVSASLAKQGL
In test [2] the target is T4, iPHF (UniProt P10636-8 2-441, limits assumed).
T4 construct: also called iPHF tau
T4 sequence (P10636 other isoform, or with tags, fused parts or gaps limits assumed): as above
The experiment in a line: BLI (Octet), antibody on biosensor tip, iPHF in solution. As for the experimental part: Anti-human tau antibodies were assessed for affinity for iPHF by Octet (ForteBio, Menlo Park, CA) analysis. A set of recombinant human IgG1 antibodies were prepared with clone-specific variable domain pairs selected from those presented in Table 1 and human IgG1 constant domains. Candidate antibodies were immobilized on biosensor tips (ForteBio) in kinetic buffer (ForteBio). Biosensor tips were then washed before introduction of a solution of iPHF in kinetic buffer for analysis of association and dissociation with candidate antibodies.

The target of test [3] is T5, AT8 peptide (amino acids 195-215 of tau) (human, phospho-peptide, phosphorylated sites not stated in the example; immobilized on streptavidin tips).
T5 peptide: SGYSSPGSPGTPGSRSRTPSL
Put plainly: BLI (Octet), phospho-peptide on streptavidin tips. As for the experimental part:
Briefly, phospho-peptides were immobilized on streptavidin biosensor tips and the binding ability of each antibody was assessed using an eight-point concentration gradient.
(In general: Biolayer interferometry detects binding as a change in optical thickness at a sensor tip.)

For test [4], the target named is T3, enriched paired helical filament tau …. Put plainly: cell-based or functional assay.
For test [5], the target named is T6, AT270 peptide (pT181; Tau172-186) (human).
T6 peptide: PAKTPPAPK[pT]PPSSG
The experiment in a line: one point ELISA. A general note: An ELISA detects its analyte on a solid surface through an enzyme-linked reagent.

Test [6] concerns the target T4, iPHF. The experiment in a line: SPR (Biacore 8K).
Test [7] concerns the target Tau191-214 phospho-peptide (pS202) (human, phosphoserine at S202 of tau (peptide position 12); SCBio-4PEG label). The experiment in a line: one point ELISA. From the text: (§3) One-point ELISA was used to determine differential binding based on the individual phosphorylation patterns of each peptide. OD values (450 nm) were collected (as shown in Table 13), where a stronger positive signal is shown as a higher OD value, which is indicative of increased binding.

Test [8] addresses Tau191-214 phospho-peptide (pT205) (human, phosphothreonine at T205 of tau (peptide position 15); SCBio-4PEG label). The experiment in a line: one point ELISA.
Source text: as §3

Test [9] addresses T3, enriched paired helical filament tau …. Put plainly: follow up selectivity analysis, ePHF over wild-type tau; method not stated.
Test [10] addresses T4, iPHF. Put plainly: follow up selectivity analysis, iPHF over wild-type tau; method not stated.
Test [11] concerns the target T7, Tau191-214 phospho-peptide (pS199) (human, phosphoserine at S199 of tau (peptide position 9); SCBio-4PEG label).
T7 construct: also called pS199 peptide
Put plainly: one point ELISA.
Source text: as §3

Test [12] addresses Tau191-214 phospho-peptide (pS199/pT205) (human, phosphoserine at S199 and phosphothreonine at T205 of tau (peptide positions 9, 15); SCBio-4PEG label). Put plainly: one point ELISA.
Source text: as §3

For test [13], the target named is Tau191-214 phospho-peptide (pS199/pS202) (human, phosphoserine at S199 and S202 of tau (peptide positions 9, 12); SCBio-4PEG label). Put plainly: one point ELISA.
Chain of Tau191-214 phospho-peptide (pS199/pS202) (human, phosphoserine at S199 and S202 of tau (peptide positions 9, 12); SCBio-4PEG label) (peptide, as listed by the source): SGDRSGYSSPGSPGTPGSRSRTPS
Source text: as §3

In test [14] the target is T8, pS199-old (SCBio-4PEG-Peptide, Tau191-214) (human, phosphoserine at S199 of tau by the row label; SCBio-4PEG label).
T8 construct: The suffix -old is not explained
Put plainly: one point ELISA.
Source text: as §3

For test [15], the target named is T7, Tau191-214 phospho-peptide (pS199). The experiment in a line: BLI.

T1 sequence (P10636 other isoform, or with tags, fused parts or gaps limits assumed): as the sequence (P10636 other isoform, or with tags, fused parts or gaps limits assumed) above

B1: VY014 (antibody, V domains shown)
VH: EVQLVESGGGLVQPGGSLRLSCAASGFTFNNYDMHWVRQAAGKGLEWVSTIGAAGDTYYPGSVKGRFIISRENAKNSLYLQMNSLRAGDTAVYYCARAGETLEGATIGYYYGMDVWGQGTTVTVSS
VL: DILMTQSPLSLPVTPGEPASISCRSSQSLLHSNGYNYLDWYLQKPGQSPQLLIYLGSNRASGVPDRFSGSGSGTDFTLKFSRVEAEDVGLYYCMQALQIPLTFGGGTKVEIK
Take B1: the EC50 (usually the concentration that produces a half-maximal response) in the test with wild type tau was 0.04 nM; in test [1], 6.23 nM. In addition, the binding result in the test with Tau(pS404) peptide was “binds”. In the test with iPHF [2], binding was characterised by a dissociation constant (Kd) of 5.3 nM.

B2: VY011 (antibody, V domains shown)
VH: QVQLQESGPGLVKPSETLSLTCTVSGGSISNYYWTWIRQPAGKGLEWIGRVYTSGSANYNPSLKSRVTMSVDTSKNQFSLTLSSVTAADTAVYYCARDRGLYYWGQGTLVTVSS
VL: DIVMTQTPLSSLVTLGQPASISCRSSQSLVHSDGNTYLSWLQQRPGQPPRLLIYKISKRFFGVPDRFSGSGAGTDFTLKINRVEAEDVGIYYCMQATQFPLTFGGGTKVEIK
notes: also called VY0I1; VY0111 (misprints in the text)
On to B2, for which the Kd (usually the constant that tells how readily two partners part at equilibrium) in test [3] came to 0.0089 nM; in the test with iPHF [6], 0.238 nM; with iPHF [2], 2 nM. In test [4], the “Average IC50 (nM) for inhibiting tau aggregation after immunodepletion of ePHF (tau RD Biosensor cells)” value is 18.1 nM. In addition, the binding result in test [5] is “no binding”. Moreover, the “OD (450 nm)” value in test [7] and in [8] was 0.06 OD450 throughout. The molecule also registered a 50% effective concentration (EC50) in test [1] of 0.03 nM. Moreover, the “selectivity ePHF:WT” value in test [9] was more than 137 fold. Also, in the test with iPHF [10], the “selectivity iPHF:WT” value is more than 108 fold.

B3: VY003 (antibody, V domains shown)
VH: EVQMVESGGGLVQPGGSLTLSCAASGFTFSSYRMNWVRQAPGKGLEWVSYISSSRSAIYYADSVKGRFTISRDNAKNSLYLQMNSLRDEDTAVYYCATLGIGYWGQGTLVTVSS
VL: DIVMTQTPLSSPVTLGQPASISCRSSQSLVHSDGNTYLSWLQQRPGQPPRLLIYKISNRFSGVPDRFSGSGAGTDFTLKITRVEAEDVGIYYCMQVTQFPRTFGQGTKVEIR
As to B3, the Kd in test [3] came out at 0.0124 nM; with iPHF [2] it was 4.6 nM. Besides, the “OD (450 nm)” value in test [11] stood at 0.065 OD450; in [12] it was 0.119 OD450; in [13], 0.082 OD450; in test [7] it was 0.065 OD450; in [14] it was 0.062 OD450; in [8], 0.06 OD450. Further, in test [1], the EC50 is 0.06 nM.

B4: VY020 (antibody, V domains shown)
VH: EVQLVESGGGLVQPGGSLRLSCAASGFTFSSYSMNWVRQAPGKGLEWISYISSSNSTIKYADSVKGRFTISRDNAKNSLYLQMNSLRDEDTAVYYCARRSLGDYWGQGTLVIVSS
VL: EIVLTQSPATLSLSPGERATLSCRASQSVSSYLAWYLQKPGQAPRLLIYDVSNRATGIPARFSGSGSGTDFTLTISRLEPEDFAVYYCQQRRNWPYTFGQGTKLEIK
Turning to B4, the binding result in [15], in [3] and in [5] was “no binding” throughout. Further, the Kd with iPHF [2] was found to be 2.6 nM.
